Data reported in patent publication US11667697.

Key:
[1] = target: VACV I1 protein (vaccinia virus); test: lysate ELISA
[2] = target: MPXV ortholog of I1 (monkeypox virus); test: lysate ELISA
[3] = target: CPXV ortholog of I1 (cowpox virus); test: lysate ELISA
[4] = target: MPXV ortholog of H3 (monkeypox virus); test: lysate ELISA
[5] = target: CPXV ortholog of H3 (cowpox virus); test: lysate ELISA
[6] = target: MPXV ortholog of H3 (monkeypox virus); test: cell-based or functional assay
[7] = target: CPXV ortholog of H3 (cowpox virus); test: cell-based or functional assay
[8] = target: VACV A21 protein (vaccinia virus); test: purified antigen ELISA
[9] = target: MPXV ortholog of A33 (monkeypox virus); test: lysate ELISA
[10] = target: CPXV ortholog of A33 (cowpox virus); test: lysate ELISA
[11] = target: MPXV ortholog of A33 (monkeypox virus); test: cell-based or functional assay
[12] = target: VARV ortholog of A33 (variola virus); test: purified antigen ELISA
[13] = target: CPXV ortholog of L1 (cowpox virus); test: lysate ELISA
[14] = target: MPXV ortholog of L1 (monkeypox virus); test: lysate ELISA
[15] = target: CPXV ortholog of L1 (cowpox virus); test: cell-based or functional assay
[16] = target: MPXV ortholog of L1 (monkeypox virus); test: cell-based or functional assay
[17] = target: VARV ortholog of L1 (variola virus); test: purified antigen ELISA
[18] = target: MPXV ortholog of B5 (monkeypox virus); test: lysate ELISA
[19] = target: CPXV ortholog of B5 (cowpox virus); test: lysate ELISA
[20] = target: CPXV ortholog of B5 (cowpox virus); test: cell-based or functional assay
[21] = target: VARV ortholog of B5 (variola virus); test: purified antigen ELISA
[22] = target: MPXV ortholog of I1 (monkeypox virus); test: cell-based or functional assay
[23] = target: CPXV ortholog of A25 (cowpox virus); test: lysate ELISA
[24] = target: VACV A25 protein (vaccinia virus); test: lysate ELISA
[25] = target: MPXV ortholog of A25 (monkeypox virus); test: lysate ELISA
[26] = target: MPXV ortholog of the A27 VACV protein (monkeypox virus); test: lysate ELISA
[27] = target: CPXV ortholog of A27 (cowpox virus); test: lysate ELISA
[28] = target: MPXV ortholog of the A27 VACV protein (monkeypox virus); test: cell-based or functional assay
[29] = target: CPXV ortholog of A27 (cowpox virus); test: cell-based or functional assay
[30] = target: MPXV ortholog of the A27 VACV protein (monkeypox virus); test: purified antigen ELISA
[31] = target: VARV ortholog of A27 (variola virus); test: purified antigen ELISA

B1: MPXV-31 (antibody, V domains shown)
VH: QLQLQESGPGLVKPSETLSLTCTVSGGSISSRNFFWAWIRQPPGKGLEFIGSIFYSGGTYYNPSLKSRLSISVDTSRNQFSLRLSSVTAADTAVYYCARHMIVVLPGVPISTSFDPWGQGTL
VL: DIVMTQSPDSLAVSLGERATINCKSSQSVLSNSNNKNYLAWYQQKPGQPPRLLIYWASARESGVPDRFSGSGSGTDFTLTIISLQPEDVAVYYCQQYYSPPAELSFGGGTKVDIK
In the case of B1, the EC50 [1] is reported as 0.01 µg/mL, the EC50 [2] is reported as 40 ng/mL and the EC50 [3] is reported as 0.01 µg/mL.

B2: MPXV-71 (antibody, V domains shown)
V domain 1: EVQLVESGGGLVQPGESLKISCSASGFTFSDYAMHWVRQAPGQGLQYVSAISSNGHSTYYADSVKGRFTFSRDNSKNTLYLQMSSLRPEDTAVYYCVRCLLRGLISPFDYWGQGTLV
V domain 2: QSVLTQPPSVSEAPRQRVTISCSGSSSNIGNNAVNWYQQLPGKAPKLLIYYDDLLPSGVSDRFSGSKSGTTASLTISGPPEDEADFYCSTWDYSLSARVFGGGTQVTVL
With B2 the EC50 [1] was 0.022 µg/mL, the EC50 [2] was 6 ng/mL and the EC50 [3] was 0.014 µg/mL.

B3: VACV-314 (antibody, V domains shown)
VH: QVQLVQSGPGLVKPSETLSLTCTVSGGSISSYYWSWIRQPPGKGLEYIGHIYYSGGTKYNPSLRSRVTISVDTSKNQFSLKLTSVTAADTAVYYCARLAGRKPDADSWGQGTLVTVSS
VL: QPVLTQEPSLTVSPGGTVTLTCASSTGAVTSGFFPNWLQQKPGQAPRALIYSTNNKHSWTPARFSGSLLGGKAALTLSGVQPEDEAEYYCLLYYGGVVVFGGGTKLTVL
B3 was tested, and the EC50 [4] was 3 ng/mL, the EC50 [5] was 4 ng/mL and the PRNT Emax, MPXV MV+C' [6] was 84%. It also gave a PRNT IC50, MPXV MV+C' [6] of 0.8 µg/mL, a PRNT Emax, CPXV MV+C' [7] of 85% and a PRNT IC50, CPXV MV+C' [7] of 0.7 µg/mL.

B4: VACV-318 (antibody, V domains shown)
VH: SYELTQPPSVSVSPGQTARITCSGDELPKRYAYWYQQKSGQAPVLVIYEDTKRPSGIPERFSGSSSGTVATLTISGAQVDDEADYYCYSTDSTSNHKRVFGGGTQVTVL
V domain: QVQLVESGGGVVQPGRSLRLSCTASGFNFSYYGIHWVRQAPGKGLQWVALISYDGSDKYYADSVKGRFTVSRDYSKNTLFLQMNSLRGDDTAVYYCQMVKVPFYFWGQGTMVTLSS
For B4, the EC50 [8] was 1.3 µg/mL.

B5: VACV-315 (antibody, V domains shown)
VH: EVQLLESGGGLVQPGGSLKLSCAASGFIFSNYAMGWVRQAPGKGLEWVSALSASDGVTSYADSVKGRFTISRDNSKNTMYLQMNRLRTEDTAIYFCAKGRARVNNIYRYFDHWGQGTLVTVSS
VL: QSVLTQPASVSGSPGQSITISCTGTSSDVGAYTFVSWYQHHPGKAPKLIIYEVSNRPSGVSDRFSGSKSGNTASLTISGLQAEDEADYYCNSYTTTSPWVFGGGTQLTVL
With B5 the EC50 [4] was 1 ng/mL, the EC50 [5] was 2 ng/mL and the PRNT Emax, CPXV MV+C' [7] was 70%. The PRNT IC50, CPXV MV+C' [7] was 2.8 µg/mL.

B6: MPXV-51 (antibody, V domains shown)
VH: QLQLQESGPGLVKPSETLSLSCTVSGGSINSRTYYWGWIRQPPGKGPEWIGTVFHNVSTLYTSSLRSRVTISVDTSKNRFSLKLTSVTAADTAVYFCGRLTPRNLFRGTLVRWVDPWGQGILVTVSS
VL: EIVLAQSPGTLSLSPGERATLSCRASHNLNSNYLAWYQQKPGQAPRLLIYGASSRATGIPDRFTGSGSGTDFTLTISRLEPEDFAVYYCQQYAGSLTFGGGTKVDIK
For B6, the EC50 [9] was 0.025 µg/mL, the EC50 [10] was 0.024 µg/mL and the PRNT Emax, MPXV EV+C' [11] was 77%. For the same binder, the PRNT IC50, MPXV EV+C' [11] was 0.8 µg/mL and the EC50 [12] was 0.04 µg/mL.

B7: MPXV-87 (antibody, V domains shown)
V domain 1: QVQLVQSGAEVKKPGASVKVSCKASGYTFTSHGIIWVRQAPGQGLEWMGWISVYNDNTNSAQKFQDRVTMTTATSTSTAYMELRSLRSDDTAVYYCARSSSGPRYYYYGMDVWGQGTTSP
V domain 2: QSVVTQPPSVSGAPGQRVTISCTGSSSNIGAGYAVHWYYQLPGIAPKLLIFGNNNRPSGVPDRFSGSKSGTSASLAITGLQAEDEADYYCQSYDSSLSGWVFGGGTQVTVL
Work on B7 yielded an EC50 [13] of 3 ng/mL, an EC50 [14] of 1 ng/mL and a PRNT Emax, CPXV MV [15] of 63%. For the same binder, the PRNT Emax, CPXV MV+C' [15] was 82%, the PRNT IC50, CPXV MV [15] was 0.8 µg/mL and the PRNT IC50, CPXV MV+C' [15] was 0.6 µg/mL. It also gave a PRNT Emax, MPXV MV [16] of 57%, a PRNT Emax, MPXV MV+C' [16] of 65% and a PRNT IC50, MPXV MV [16] of 50 µg/mL. The PRNT IC50, MPXV MV+C' [16] was 50 µg/mL and the EC50 [17] was 0.3 µg/mL.

B8: MPXV-66 (antibody, V domains shown)
VH: QVQLQQWGAGLLKPSETLSLTCAVHGGSFSGYFWSWIRQPPGKGLEWIGEMNHSGSTNYNPSLKSRVTISVDTSKKQFSLKLNSVTAADTAVYYCARTARTVRYFENWGQGTLVTVSS
VL: DIVMTQSPDSLAVSLGERATINCKSSQTVLYNSNNYSYLTWYQQKPGQPPRVLIYWASTRESGVPDRFSGSGSGTDFTLTISSLQAENVALYYCQQYYSTPWTFGQGTKVDIK
In the case of B8, the EC50 [18] is reported as over 16 µg/mL, the EC50 [19] is reported as over 29 µg/mL and the PRNT Emax, CPXV EV+C' [20] is reported as 86%. The PRNT IC50, CPXV EV+C' [20] was 0.03 µg/mL and the EC50 [21] was 0.16 µg/mL.

B9: MPXV-97 (antibody, V domains shown)
VH: QVQLVQSGGGVVQPGRSLTLSCSASGFIFTRYGLHWVRQAPGKGLEWVAVISSDGTNRHYADSVKGRFTVSRDNSKSTLYVQMNSLRNEDTAVYYCARLSLEAAWYFDLWGRGTLVTVSS
VL: QSVVTQPPSVSGAPGQRVTISCTGSSSNIGAGYDVHWYQHLPGTAPKVLIYGNTNRPSGVPDRFSGSKSGTSASLAITGLQAEDEADYYCQSYDNSLNGPWVFGTGTQ
In the case of B9, the EC50 [1] is reported as 0.008 µg/mL, the EC50 [2] is reported as 1 ng/mL and the EC50 [3] is reported as over 50 µg/mL. It also gave a PRNT Emax, MPXV MV [22] of 96%, a PRNT Emax, MPXV MV+C' [22] of 76% and a PRNT IC50, MPXV MV [22] of 0.02 µg/mL. The PRNT IC50, MPXV MV+C' [22] was 0.02 µg/mL.

B10: MPXV-9 (antibody, V domains shown)
VH: QVQLVQSGAEVKKPGASVKVSCKASGYNLTTYDIVWVRQAAGQGLEWMGWMNPKSGNTAYAERFQGRVTMTRNTSISTAYMELSSLRSEDTAVYYCARSLDSLRFLEWFHQNYYYFMDVWGKGTTVT
VL: EIVLTQSPATLSLSPGERATLSCRASQTIGGYLAWYQQIPGQAPRLLIYDASNRATGIPARFSGSGSGTDFTLTISSLEPEDFAVYYCQLRSTFGGGTKVDIK
Binder B10 has an EC50 [23] of 0.876 µg/mL, an EC50 [24] of 0.022 µg/mL and an EC50 [25] of 0.107 µg/mL.

B11: VACV-301 (antibody, V domains shown)
VH: EVQLLESGGGLVQPGGSLRLSCAASGFSFSSYAMSWVRQAPGKGLEWVSGIGNSGDRTFYADSAKGRFTIFRDNSNNRLYLQMNSLRAADTAVYYCAKWGRFESGAFWGQGVLVTVSS
VL: SYELTQSPSVSVSPGQTARITCSGDALPEQYAYWYQQKPGQAPVLVIYKDSERPSGIPERFSGSGSGTTVTLTITGVQAEDEADYYCQSADNSGTYEVFGTGTKVTVL
Binder B11 has an EC50 [26] of over 5.6 µg/mL, an EC50 [27] of over 1.4 µg/mL and a PRNT Emax, MPXV MV [28] of 84%. It also gave a PRNT Emax, MPXV MV+C' [28] of 92%, a PRNT IC50, MPXV MV [28] of 1.6 µg/mL and a PRNT IC50, MPXV MV+C' [28] of 0.8 µg/mL. For the same binder, the PRNT Emax, CPXV MV+C' [29] was 86%, the PRNT IC50, CPXV MV+C' [29] was 4 µg/mL and the EC50 [30] was 0.04 µg/mL. The EC50 [31] was 0.11 µg/mL.

B12: MPXV-79 (antibody, V domains shown)
VH: QVQLVQSGAEVKKPGASVKVSCKASGYSFRSNGISWVRQAPGQGFEWLGWIAAYNGDTKYVQKFQGRLTMTTDTSTDTAYMELWSLRSDDTAVYYCARDPKLGRKGSAFDIWGQGTLVIVSS
VL: EIVLTQSPATLSLSPGGRATLSCRASQSVGNYLTWYQQKPGQAPRLLIFDGSTRATGIPARFSGSGSGTDFTLTISSLEPEDFAVYYCLQRSDLYTFGQGTKVDIK
B12 was tested, and the EC50 [4] was 3 ng/mL, the EC50 [5] was 4 ng/mL and the PRNT Emax, MPXV MV [6] was 67%. The PRNT IC50, MPXV MV [6] was 12.5 µg/mL, the PRNT Emax, CPXV MV+C' [7] was 81% and the PRNT IC50, CPXV MV+C' [7] was 0.2 µg/mL.

B13: VACV-309 (antibody, V domains shown)
VH: EVQLLESGGGLVQPGESLKLSCAASGFTFSSYAMNWVRQAPGKGLEWVSGISGSGGSTYYADSVKGRFTVSRDNSKNTLYLQMNSLRAEDTAVYYCAKDNNYYYYGMDVWGQGTTVTVSS
VL: AIQMTQSPSSLSASVGDRVTITCRASQGIRNDLGWYQQKPGKAPKLLIYAASSLQSGVPSRFSGSGSGTDFTLTISSLQPEDFATYYCLQDYNYPRMFGQGTKVDIK
In the case of B13, the EC50 [23] is reported as 0.005 µg/mL, the EC50 [24] is reported as 0.005 µg/mL and the EC50 [25] is reported as 0.001 µg/mL.

B14: VACV-22 (antibody, V domains shown)
VH: QVQLVESGGGVVQPGRSLRLSCAASGFTFSNSGMHWVRQAPGKGLEWVAVIWFDGTNKYYADSVKGRFTISRDNSKNTLYLQMNSLRAEDTAVYYCARVPCGGDCYSGYLQHWGQGTLVTVSS
VL: AIVMTQSPATLSVSPGERATLSCRASQSVSSTLAWYQQKPGQAPRLLIYGASTKATGIPARFSGSGSGTEFTLTISSLQSEDFAVYYCQHYNNWPPLLTFGGGTKVDIK
In the case of B14, the EC50 [9] is reported as over 0.006 µg/mL, the EC50 [10] is reported as over 0.009 µg/mL and the PRNT Emax, MPXV EV+C' [11] is reported as 72%. For the same binder, the PRNT IC50, MPXV EV+C' [11] was 50 µg/mL and the EC50 [12] was 0.02 µg/mL.
